Laboratory results: PMC12102759 (2025)

B1: PEX5 peptide 110-125 (Peroxisomal targeting signal 1 receptor), 16-mer library wild type / PEX14 Pex14 (PEX14 PEX14, residues 16-84) (parent complex)
chain 1: ADLALSENWAQEFLAA
chain 2: TPGSENVLPREPLIATAVKFLQNSRVRQSPLATRRAFLKKKGLTDEEIDMAFQQSGTAADEPSSLGPAT
B2: RNF115 peptide 67-82 (E3 ubiquitin-protein ligase RNF115), 16-mer library wild type / MDM2 SWIB (MDM2 SWIB/MDM2 domain, residues 17-125) (parent complex)
chain 1: TTTHFAELWGHLDHTM
chain 2: SQIPASEQETLVRPKPLLLKLLKSVGAQKDTYTMKEVLFYLGQYIMTKRLYDEKQQHIVYCSNDLLGDLFGVPSFSVKEHRKIYTMIYRNLVVVNQQESSDSGTSVSEN

Variants of: B1
Assay: proteomic peptide phage display deep mutational scan (ProP-PD DMS): M13 P8 16-mer library selected against immobilised GST-tagged bait for four days (rounds), NGS of the eluted pools per day and pseudo-replica; bait immobilised on MaxiSorp plates (10 µg), library pre-cleared on GST, 2 h binding at 4 °C, five washes; one round per day, days 1-4; value from days 2 and 3

Compared with chain 1 L14T, chain 1 L14R is lower in screen value: 0.00188 average fractional NGS count over selection days 2 and 3 (reads of this peptide / all reads for the bait, averaged over … for the first, 0.000944 average fractional NGS count over selection days 2 and 3 (reads of this peptide / all reads for the bait, averaged over … for the second.

Going from chain 1 L14K to chain 1 L14Q, the screen value rises from 0.000342 average fractional NGS count over selection days 2 and 3 (reads of this peptide / all reads for the bait, averaged over … to 0.000996 average fractional NGS count over selection days 2 and 3 (reads of this peptide / all reads for the bait, averaged over ….

Compared with chain 1 L14F, chain 1 L14D is lower in screen value: 0.00346 average fractional NGS count over selection days 2 and 3 (reads of this peptide / all reads for the bait, averaged over … for the first, 0.000896 average fractional NGS count over selection days 2 and 3 (reads of this peptide / all reads for the bait, averaged over … for the second.

Going from chain 1 L14S to chain 1 S6R, the screen value rises from 0.00136 average fractional NGS count over selection days 2 and 3 (reads of this peptide / all reads for the bait, averaged over … to 0.00161 average fractional NGS count over selection days 2 and 3 (reads of this peptide / all reads for the bait, averaged over ….

Compared with chain 1 S6N, chain 1 S6L is higher in screen value: 0.000624 average fractional NGS count over selection days 2 and 3 (reads of this peptide / all reads for the bait, averaged over … for the first, 0.00108 average fractional NGS count over selection days 2 and 3 (reads of this peptide / all reads for the bait, averaged over … for the second.

Compared with chain 1 S6H, chain 1 S6F is lower in screen value: 0.00186 average fractional NGS count over selection days 2 and 3 (reads of this peptide / all reads for the bait, averaged over … for the first, 0.00174 average fractional NGS count over selection days 2 and 3 (reads of this peptide / all reads for the bait, averaged over … for the second.

Compared with chain 1 S6E, chain 1 S6G is lower in screen value: 0.00164 average fractional NGS count over selection days 2 and 3 (reads of this peptide / all reads for the bait, averaged over … for the first, 0.000749 average fractional NGS count over selection days 2 and 3 (reads of this peptide / all reads for the bait, averaged over … for the second.

Going from chain 1 L5K to chain 1 L5T, the screen value falls from 0.000511 average fractional NGS count over selection days 2 and 3 (reads of this peptide / all reads for the bait, averaged over … to 0.000402 average fractional NGS count over selection days 2 and 3 (reads of this peptide / all reads for the bait, averaged over ….

Going from chain 1 L5H to chain 1 L5P, the screen value falls from 0.00347 average fractional NGS count over selection days 2 and 3 (reads of this peptide / all reads for the bait, averaged over … to 0.000702 average fractional NGS count over selection days 2 and 3 (reads of this peptide / all reads for the bait, averaged over ….

Going from chain 1 L5M to chain 1 L5Q, the screen value falls from 0.000827 average fractional NGS count over selection days 2 and 3 (reads of this peptide / all reads for the bait, averaged over … to 0.000395 average fractional NGS count over selection days 2 and 3 (reads of this peptide / all reads for the bait, averaged over ….

Variants of: B2
Assay: as above

Going from chain 1 T15L to chain 1 T15W, the screen value rises from 7.38e-05 average fractional NGS count over selection days 2 and 3 (reads of this peptide / all reads for the bait, averaged over … to 0.00561 average fractional NGS count over selection days 2 and 3 (reads of this peptide / all reads for the bait, averaged over ….

First: chain 1 T15M
Second: chain 1 T15H
The screen value of the first is higher: 0.00385 average fractional NGS count over selection days 2 and 3 (reads of this peptide / all reads for the bait, averaged over … for the first, 0.000116 average fractional NGS count over selection days 2 and 3 (reads of this peptide / all reads for the bait, averaged over … for the second.

First: chain 1 T15Y
Second: chain 1 T15G
The screen value of the first is higher: 0.00205 average fractional NGS count over selection days 2 and 3 (reads of this peptide / all reads for the bait, averaged over … for the first, 0.0009 average fractional NGS count over selection days 2 and 3 (reads of this peptide / all reads for the bait, averaged over … for the second.

First: chain 1 D13Q
Second: chain 1 D13V
The screen value of the first is lower: 0.00218 average fractional NGS count over selection days 2 and 3 (reads of this peptide / all reads for the bait, averaged over … for the first, 0.0143 average fractional NGS count over selection days 2 and 3 (reads of this peptide / all reads for the bait, averaged over … for the second.

Compared with chain 1 D13W, chain 1 D13G is higher in screen value: 0.000615 average fractional NGS count over selection days 2 and 3 (reads of this peptide / all reads for the bait, averaged over … for the first, 0.00549 average fractional NGS count over selection days 2 and 3 (reads of this peptide / all reads for the bait, averaged over … for the second.

Going from chain 1 D13R to chain 1 D13T, the screen value rises from 0.000392 average fractional NGS count over selection days 2 and 3 (reads of this peptide / all reads for the bait, averaged over … to 0.0095 average fractional NGS count over selection days 2 and 3 (reads of this peptide / all reads for the bait, averaged over ….

Going from chain 1 D13F to chain 1 D13M, the screen value rises from 0.00274 average fractional NGS count over selection days 2 and 3 (reads of this peptide / all reads for the bait, averaged over … to 0.00561 average fractional NGS count over selection days 2 and 3 (reads of this peptide / all reads for the bait, averaged over ….

First: chain 1 D13P
Second: chain 1 T3A
The screen value of the first is higher: 0.00074 average fractional NGS count over selection days 2 and 3 (reads of this peptide / all reads for the bait, averaged over … for the first, 0.000681 average fractional NGS count over selection days 2 and 3 (reads of this peptide / all reads for the bait, averaged over … for the second.

First: chain 1 T3D
Second: chain 1 T3Q
The screen value of the first is higher: 0.000232 average fractional NGS count over selection days 2 and 3 (reads of this peptide / all reads for the bait, averaged over … for the first, 0.000196 average fractional NGS count over selection days 2 and 3 (reads of this peptide / all reads for the bait, averaged over … for the second.

Compared with chain 1 T3I, chain 1 T3H is lower in screen value: 0.00069 average fractional NGS count over selection days 2 and 3 (reads of this peptide / all reads for the bait, averaged over … for the first, 0.000104 average fractional NGS count over selection days 2 and 3 (reads of this peptide / all reads for the bait, averaged over … for the second.

First: chain 1 T3L
Second: chain 1 H14S
The screen value of the first is higher: 0.00187 average fractional NGS count over selection days 2 and 3 (reads of this peptide / all reads for the bait, averaged over … for the first, 0.00046 average fractional NGS count over selection days 2 and 3 (reads of this peptide / all reads for the bait, averaged over … for the second.

First: chain 1 H14Y
Second: chain 1 H14E
The screen value of the first is higher: 0.00813 average fractional NGS count over selection days 2 and 3 (reads of this peptide / all reads for the bait, averaged over … for the first, 9.03e-05 average fractional NGS count over selection days 2 and 3 (reads of this peptide / all reads for the bait, averaged over … for the second.

Going from chain 1 H14A to chain 1 G10A, the screen value rises from 0.00138 average fractional NGS count over selection days 2 and 3 (reads of this peptide / all reads for the bait, averaged over … to 0.00678 average fractional NGS count over selection days 2 and 3 (reads of this peptide / all reads for the bait, averaged over ….

Going from chain 1 G10M to chain 1 H4D, the screen value falls from 0.00144 average fractional NGS count over selection days 2 and 3 (reads of this peptide / all reads for the bait, averaged over … to 0.000343 average fractional NGS count over selection days 2 and 3 (reads of this peptide / all reads for the bait, averaged over ….

Compared with chain 1 H4G, chain 1 H4A is lower in screen value: 0.00192 average fractional NGS count over selection days 2 and 3 (reads of this peptide / all reads for the bait, averaged over … for the first, 0.000176 average fractional NGS count over selection days 2 and 3 (reads of this peptide / all reads for the bait, averaged over … for the second.

Compared with chain 1 H4I, chain 1 H4F is lower in screen value: 0.000874 average fractional NGS count over selection days 2 and 3 (reads of this peptide / all reads for the bait, averaged over … for the first, 0.000236 average fractional NGS count over selection days 2 and 3 (reads of this peptide / all reads for the bait, averaged over … for the second.

Compared with chain 1 F5S, chain 1 F5Q is higher in screen value: 0.000118 average fractional NGS count over selection days 2 and 3 (reads of this peptide / all reads for the bait, averaged over … for the first, 0.00091 average fractional NGS count over selection days 2 and 3 (reads of this peptide / all reads for the bait, averaged over … for the second.

Going from chain 1 F5Y to chain 1 L8H, the screen value rises from 0.0001 average fractional NGS count over selection days 2 and 3 (reads of this peptide / all reads for the bait, averaged over … to 0.000131 average fractional NGS count over selection days 2 and 3 (reads of this peptide / all reads for the bait, averaged over ….

First: chain 1 L8F
Second: chain 1 H11G
The screen value of the first is higher: 0.000568 average fractional NGS count over selection days 2 and 3 (reads of this peptide / all reads for the bait, averaged over … for the first, 0.000565 average fractional NGS count over selection days 2 and 3 (reads of this peptide / all reads for the bait, averaged over … for the second.

Compared with chain 1 H11V, chain 1 H11M is higher in screen value: 0.00167 average fractional NGS count over selection days 2 and 3 (reads of this peptide / all reads for the bait, averaged over … for the first, 0.00257 average fractional NGS count over selection days 2 and 3 (reads of this peptide / all reads for the bait, averaged over … for the second.

Going from chain 1 H11S to chain 1 H11N, the screen value falls from 0.000392 average fractional NGS count over selection days 2 and 3 (reads of this peptide / all reads for the bait, averaged over … to 0.000176 average fractional NGS count over selection days 2 and 3 (reads of this peptide / all reads for the bait, averaged over ….

First: chain 1 H11T
Second: chain 1 H11D
The screen value of the first is higher: 0.00102 average fractional NGS count over selection days 2 and 3 (reads of this peptide / all reads for the bait, averaged over … for the first, 0.00024 average fractional NGS count over selection days 2 and 3 (reads of this peptide / all reads for the bait, averaged over … for the second.

Compared with chain 1 H11K, chain 1 T2L is lower in screen value: 0.000921 average fractional NGS count over selection days 2 and 3 (reads of this peptide / all reads for the bait, averaged over … for the first, 0.000556 average fractional NGS count over selection days 2 and 3 (reads of this peptide / all reads for the bait, averaged over … for the second.

First: chain 1 T2M
Second: chain 1 T2D
The screen value of the first is lower: 0.000321 average fractional NGS count over selection days 2 and 3 (reads of this peptide / all reads for the bait, averaged over … for the first, 0.00164 average fractional NGS count over selection days 2 and 3 (reads of this peptide / all reads for the bait, averaged over … for the second.

Going from chain 1 M16T to chain 1 M16W, the screen value rises from 0.00044 average fractional NGS count over selection days 2 and 3 (reads of this peptide / all reads for the bait, averaged over … to 0.000718 average fractional NGS count over selection days 2 and 3 (reads of this peptide / all reads for the bait, averaged over ….

Compared with chain 1 A6Q, chain 1 A6W is higher in screen value: 0.000266 average fractional NGS count over selection days 2 and 3 (reads of this peptide / all reads for the bait, averaged over … for the first, 0.000676 average fractional NGS count over selection days 2 and 3 (reads of this peptide / all reads for the bait, averaged over … for the second.

Compared with chain 1 A6S, chain 1 A6H is lower in screen value: 0.000754 average fractional NGS count over selection days 2 and 3 (reads of this peptide / all reads for the bait, averaged over … for the first, 0.00017 average fractional NGS count over selection days 2 and 3 (reads of this peptide / all reads for the bait, averaged over … for the second.

chain 1 E7D was tested, and the screen value was 0.000661 average fractional NGS count over selection days 2 and 3 (reads of this peptide / all reads for the bait, averaged over ….
